Assay [1] concerns the target mouse αVβ6 on cells (mouse) (UniProt P43406). Put plainly: FACS, purified mAb, transfected HEK-293 (parental: 74). On the technique in general: Flow cytometry measures light scatter and fluorescence of single cells or particles in a stream.
Assay [2] has the same target. Put plainly: FACS, K562 cells expressing mouse αVβ6 (parental K562: 33).
Assay [3] has as its target cynomolgus β6 on transfected HEK-293 cells (cynomolgus). Put plainly: FACS, purified mAb, transfected HEK-293 (parental: 2).

Sequence of mouse αVβ6 on cells (mouse) (P43406 31-1044, chain 1 of 2): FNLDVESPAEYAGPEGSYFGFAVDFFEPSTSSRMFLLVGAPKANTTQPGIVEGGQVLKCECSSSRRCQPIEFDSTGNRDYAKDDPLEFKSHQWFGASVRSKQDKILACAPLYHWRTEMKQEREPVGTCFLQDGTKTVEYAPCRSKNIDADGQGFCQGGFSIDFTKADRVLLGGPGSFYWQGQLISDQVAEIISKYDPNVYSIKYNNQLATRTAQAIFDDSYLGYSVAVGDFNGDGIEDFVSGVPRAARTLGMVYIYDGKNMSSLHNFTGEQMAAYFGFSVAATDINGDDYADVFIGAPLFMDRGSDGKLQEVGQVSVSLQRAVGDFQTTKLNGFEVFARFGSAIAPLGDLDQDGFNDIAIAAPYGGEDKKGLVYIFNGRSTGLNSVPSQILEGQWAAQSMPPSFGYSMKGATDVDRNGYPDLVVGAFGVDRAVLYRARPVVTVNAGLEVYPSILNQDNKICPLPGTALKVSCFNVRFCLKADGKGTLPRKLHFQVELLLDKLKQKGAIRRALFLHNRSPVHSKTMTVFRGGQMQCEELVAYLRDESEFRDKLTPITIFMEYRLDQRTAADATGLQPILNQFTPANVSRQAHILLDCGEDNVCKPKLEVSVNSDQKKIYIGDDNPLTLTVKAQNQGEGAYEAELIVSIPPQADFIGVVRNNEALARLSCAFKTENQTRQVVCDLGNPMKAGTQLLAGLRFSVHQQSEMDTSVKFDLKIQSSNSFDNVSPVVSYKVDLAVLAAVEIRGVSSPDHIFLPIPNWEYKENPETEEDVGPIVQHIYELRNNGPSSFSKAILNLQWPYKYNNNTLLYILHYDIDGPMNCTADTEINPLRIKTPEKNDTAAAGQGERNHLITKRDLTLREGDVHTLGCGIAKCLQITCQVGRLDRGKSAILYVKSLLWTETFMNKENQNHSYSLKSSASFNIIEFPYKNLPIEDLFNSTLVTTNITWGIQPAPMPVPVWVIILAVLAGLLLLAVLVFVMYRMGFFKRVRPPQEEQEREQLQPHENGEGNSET
Sequence of mouse αVβ6 on cells (mouse) (Q9Z0T9 22-787, chain 2 of 2, further chain): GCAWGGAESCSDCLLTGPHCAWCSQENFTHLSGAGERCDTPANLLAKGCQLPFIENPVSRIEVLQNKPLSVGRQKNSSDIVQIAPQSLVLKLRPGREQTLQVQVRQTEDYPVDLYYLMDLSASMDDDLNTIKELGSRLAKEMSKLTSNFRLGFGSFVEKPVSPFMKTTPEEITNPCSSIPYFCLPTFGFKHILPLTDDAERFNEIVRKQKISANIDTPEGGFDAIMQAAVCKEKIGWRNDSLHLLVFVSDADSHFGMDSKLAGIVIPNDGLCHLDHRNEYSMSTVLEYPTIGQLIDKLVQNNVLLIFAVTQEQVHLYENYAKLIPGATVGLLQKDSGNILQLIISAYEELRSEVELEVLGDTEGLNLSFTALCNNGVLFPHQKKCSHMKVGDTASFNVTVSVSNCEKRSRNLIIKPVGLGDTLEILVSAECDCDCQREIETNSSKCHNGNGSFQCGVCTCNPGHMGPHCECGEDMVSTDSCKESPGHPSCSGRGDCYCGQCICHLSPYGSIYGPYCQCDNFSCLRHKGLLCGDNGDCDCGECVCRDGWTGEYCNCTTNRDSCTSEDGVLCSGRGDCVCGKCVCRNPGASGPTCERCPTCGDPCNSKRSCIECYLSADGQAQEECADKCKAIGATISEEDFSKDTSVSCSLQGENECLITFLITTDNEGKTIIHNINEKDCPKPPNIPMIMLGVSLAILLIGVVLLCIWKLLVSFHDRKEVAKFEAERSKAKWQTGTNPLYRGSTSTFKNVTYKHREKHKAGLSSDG

B1: sc 264 (antibody, V domains shown)
VH: QVQLQESGPGLVKPSQTLSLTCTVSGGSISSGGYYWSWIRQHPGKGLEWIGYIYYSGRTYNNPSLKSRVTISVDTSKNQFSLKLSSVTAADTAVYYCARVATGRGDYHFYAMDVWGQGTTVTVSS
VL: SYELTQPSSVSVSPGQTARITCSGDVLAKKSARWFHQKPGQAPVLVIYKDSERPSGIPERFSGSSSGTTVTLTISGAQVEDEAAYYCYSAADNNLVFGGGTKLTVL
With B1, in assay [1], the percent of cells shifted is 63%. Besides, the Geometric Mean Shift (arbitrary units) in assay [2] came to 160.

B2: sc 133 (antibody, V domains shown)
VH: QVQLVQSGAEVKKPGASVKVSCKASGYTFTGYYMHWVRQAPGQGLEWMGWINPKSGDTNYAQKFQGRVTLTRDTSTSTAYMELSRLRSDDTAVYYCARRLDVWGQGTTVTVSS
VL: QSVLTQPPSVSAAPGQKVTISCSGSSSNIGNNYVSWYQQLPGTAPKLLIYDNNKRPSGIPDRFSGSKSGTSATLGITGLQTGDEADYYCGTWNSSLSAGYVFGTGTKVTV
Turning to B2, the percent of cells shifted in assay [3] came out at 10%.
